Laboratory results: the DeepSol protein solubility set

Assay: soluble on expression in E. coli; label from the status in PepcDB or PDB records

Row | Sequence | soluble on expression in E. coli
1 | MKVLDLIDKYYPQDNELKHILNVHSRSVADKALWIAGKHPELNLDTVFLEEAAMLHDIGIFLTHAPGIQCFGTEPYICHGYLGAGLVRKEGFPRHALVCERHTGAGLSLKDIMDQKLPVPHREMLPVSMEEQVICFADKFFSKTHLDREKTVEGARKSIAKYGDEGLQRFNNWCKLFL | not soluble
2 | MNTNDAKEYLARREIPQLFESLLNGLMCSKPEDPVEYLESCLQKVKELGGCDKVKWDTFVSQEKKTLPPLNGGQSRRSFLRNVMPENSNFPYRRYDRLPPIHQFSIESDTDLSETAELIEEYEVFDPTRPRPKIILVIGGPGSGKGTQSLKIAERYGFQYISVGELLRKKIHSTSSNRKWSLIAKIITTGELAPQETTITEIKQKLMQIPDEEGIVIDGFPRDVAQALSFEDQICTPDLVVFLACANQRLKERLL | soluble
3 | MGSDKIHHHHHHLEYVIEMLNIRKEFGSFVANDNITLQLRKGEIHALLGENGAGKSTLMNVLFGLYQPEAGEIRVRGEKVNITSPNVANDLGIGMVHQHFMLVQNFTVTENIILGAEPKAGLKIDRAAAREKVRQISEQYGLAVDPDAKIEDISVGMQQRVEILKTLYRGADILIFDEPSAVLTPQEIKELIQIMNRLIAEGKSIILITHKLKEIMEVADRCTTIRRGKYIGTVDIDETMTQSRLAEMMVGREVNFNAEYSKATPQELVLDIKDLVVKDSRGIKAVDGLNLDIRAGEIVGIAGIDGNGQTELIEAITGLRKADSGEIFLNNKSIKNLKPRKVTEAGVGHIPQDRHKHGLVLDYSIGHNMVLQTYYQKPYSKAGIMNYGQVMDKAKTLIEKFDVRTPSPETFARALSGGNQQKAIIAREVDRSPDLLIAAQPTRGLDVGAIEFIHEQLVLEREKGRAVLLISFELEEILQVSDRIAVLYEGRTVAFLDPKETNEIELGFLMAGGKKEEVGRS | not soluble
4 | MVSGGTFNAGVEKIRPGIYTNFKAAAAERTKAGERGTVALPLAASWGAAKEFVEINKEEDVEKKLGLSLAHQSFLLLRETLKLAKTVLVYRLNDGIKATATLATDVVVTAKYGGIVGNSITIKVDENVVDSSKKDVTTYLNEVAVDKQVVGTASELIDSNYVSFKTTSTSELQQSSGTTLVGGTDQPVTNLDYTQFLVSAEGEYFDTIAFPVSSSDVALKTSFVSFVKRMRDEQGVKIKGVVANMPADYEGIINVRNGVTLRDGTILEPHQVVAWVAGADASASMLKSNTFVKYDGAIDATPRLANDEAEEALQNGEFVLTFDARDKAVYVEQDLNSLTTFSKEKSSKFRKNKISRILDGINNDTRRNILDAIKERKDANTDIPADENGVQFILSMQTAYLNELQDSGAITNFDSTADITVSLNNNVDGFIVNQSIEPVDSGEKFYFTTEVKLEHHHHHH | soluble
5 | MKPKPSQFKNLERMLGLKTEQLDAVKVTIELKDKILIIENPTVIKMIAQGQEIYSVIGEAKEAQKEEPKVEIKDEDVKFVMEQTGKGEQEVKEALQKANGDIAKAILLLTGQET | soluble
6 | MNKGRVTQIMGPVVDVKFDGGKLPEIYNALTVKQSNENGTSINLTFEVALHLGDDTVRTVAMSSTDGLVRGTEVEDTGKAISVPVGDATLGRVFNVLGDAIDLDGEVPADVRRDPIHRQAPAFEELSTKVEILETGIKVVDLLAPYIKGGKIGLFGGAGVGKTVLIQELINNIAQEHGGISVFAGVGERTREGNDLYHEMSDSGVIKKTAMVFGQMNEPPGARQRVALTGLTMAEHFRDEQGQDVLLFIDNIFRFTQAGSEVSALLGRMPSAVGYQPTLATEMGQLQERITSTNKGSITSIQAVYVPADDYTDPAPATTFAHLDATTNLERRLTQMGIYPAVDPLASTSRALSPEIVGEEHYEVARQVQQTLQRYKELQDIIAILGMDELSEEDKLVVHRARRIQFFLSQNFHVAEQFTGQKGSYVPVKETVRGFKEILEGKYDDLPEDAFRLVGGIEEVIENAKKMMA | not soluble
7 | GMAEEKKKKLSIIVFSGTIDKLMPVGILTSGAAASGYEVNLFFTFWGLQAITKRSLNSQQPPQIDKNYEQMGPIMMQKMQEMKYPMWHQLVQQAKEIGEVKVFACSTTMEFFGIKREDLAEFVDDVVGVATFLDRAEGGTTLFI | soluble
8 | MSRTEGSHEAEQDLTMIVGTYTSGDSKGLYSFRFNEENGTATALSEAEVENPSYLVPSADGKFIYAVSEFSNEQAAANAFAFNKEEGTFRLLNTQKTGGEDPCYIITNGSNVVTANYSGGSISVFPIDKDGSLLPASEVVKFKGSGADKERQEKPHLHCVRITPDGKYLFADDLGTDQIHKFIVNPNAKADNEDVFLKEGSPASYKVEAGSGPRHLTFAPNGSYAYLINELSGTVIAFEYNDGELKEIQTIAADTVGAKGSGDIHISPDGKFLYASNRLKADGLAIFSIHPENGMLTKVGYQLTGIHPRNFIITPNGKYLLVACRDSNVIQVYERDTDTGLLTDIRKDIKVDKPVCIKFVPLEHHHHHH | soluble
